The results in this text go back to patent US11884710B2, “Peptide compounds and methods of use in wound healing” (priority 2013, dated 2024).

The subject of assay [1] is PKCα. The assay is described as follows: Immunofluorescence for PKCα in HCEC monolayers. It counts as cell-based, human. The following applies: CAP37 500 ng/ml; 15 minutes. As to the method:
(§1) HCEC monolayers were grown to confluency and were scratched with a 10 μl pipette tip or left unscratched, and then the monolayers were treated for 15 minutes with (A-B) buffer, (C-D) PMA (1 μM), (E-F) 250 ng/ml CAP37, and (G-J) 500 ng/ml CAP37. Cells were stained for PKCδ (250 ng/ml; (A-H)), and PKCα (1 μg/ml; (I-J)) and detected using immunofluorescence (4 μg/ml, ALEXA FLUOR® 488 dye (Life Technologies Corp., Grand Island, N.Y.)). […] Scratched monolayers that were treated for 18 hours with CAP37 (250 ng/ml; (L)) or left untreated (K) were stained for PKCδ. […] Scale bars, 20 μm.
(§2) Immunofluorescence: HCECs and primary HCECs were cultured on Lab-Tek® II glass chamber slides (Nunc, Rochester, N.Y.) and starved overnight in basal media. For wounding studies, monolayers were scratched with a 10 μl pipette tip or left unscratched and treated with 1 μM phorbol 12-myristate 13-acetate (PMA, Sigma-Aldrich), rCAP37 (25-500 ng/ml), or basal KSFM (Gibco) for 15 minutes. After treatment, the cells were fixed in 4% (v/v) formaldehyde solution (Thermo, Rockford, Ill.) in PBS (Gibco) for 20 minutes at room temperature followed by permeabilization in 0.5% TRITON™-X 100 (Mallinckrodt, St. Louis, Mo.) in PBS for 10 minutes. Remaining formaldehyde was quenched with 0.05 M ammonium chloride (NH4Cl, Sigma-Aldrich, St. Louis, Mo.) in PBS for 10 minutes. […]

Assay [2] relates to PKCδ. Description: Immunohistochemistry for PKCδ in corneal wounds in vivo. More on the design: species or system mouse. Particulars: rCAP37 250 ng/ml; sections at 6 hours. As to the method:
Mice corneas were wounded using the AlgerBrush II and treated at 0 and 16 hours with vehicle (normal saline; (A-C)) or rCAP37 (250 ng/ml; (D-F)). Whole eye globes were enucleated at 6 hours (A, B, D, E), 16 hours (C, F), and 48 hours (H) post-wounding, and sections were stained for PKCδ. Representative images show constitutive staining for PKCδ in unwounded corneas (G). […] Pronounced staining for PKCδ was seen along the leading wound edge (↓) in CAP37-treated corneas at 6 hours (D, E) and 16 hours (F). […] Scale bars, 100 μm.
Immunohistochemistry: Whole mouse eyes were collected, fixed, embedded, and cut as previously described. Antigen retrieval was performed by treating sections with Rodent Decloaker (BioCare Medical, Concord, Calif.) and steaming them for 20 minutes before cooling with deionized water for 20 minutes. Sections were blocked for 30 minutes in Rodent Blocker M (BioCare Medical, Concord, Calif.), washed three times for 5 minutes per wash in deionized water, and blocked in peroxide block (Cell Marque, Rocklin, Calif.) for 10 minutes. Sections were then washed three times for 5 minutes in deionized water and incubated overnight at 4° C. with rabbit anti-PKCδ (4 μg/ml; Santa Cruz Biotechnology, Inc. Santa Cruz, Calif.). Sections incubated with rabbit IgG (Cell Signaling Technology, Danvers, Mass.) overnight at 4° C. served as controls for nonspecific staining. […]

Assay [3] deals with human corneal epithelial cell (HCEC). The assay is described as follows: HCEC chemotaxis, modified Boyden chemotaxis chamber. Particulars: rCAP37 250 ng/ml; positive control for the peptide. The format is cell-based. As to the method: The effect of buffer control (0.1% BSA in Gey's buffer), heparin binding-epidermal growth factor (HB-EGF, 50 ng/ml), recombinant CAP37 (rCAP37, 250 ng/ml), 120-146QH (10^−12M, 10^−10 M, 10^−8 M, 10^−6M, and 10^−4M,) and 120-146QR (10^−10M, 10^−8M, 10^−6M, and 10^−4M) on HCEC chemotaxis was determined by the modified Boyden chemotaxis chamber method. HCEC chemotaxis was measured in response to HB-EGF, rCAP37, and peptides 120-146QH (SEQ ID NO:29) and 120-146QR (SEQ ID NO:28) after incubation for 3 hours at 37° C. Chemotaxis is expressed as a percent migration. The buffer control (no chemoattractant) is arbitrarily assigned the value of 100% migration. Data are expressed as means±SEM and are calculated from 6 observations for each test point. **P<0.01 by Wilcoxon signed-rank test as compared to controls.
Chemotaxis: Chemotaxis assays were performed using the modified Boyden chemotaxis chamber assay. Peptide 120-146QH was used at 10^−4 M, 10^−6 M, 10^−8 M, 10^−10 M, and 10^−12 M, and peptide 120-146QR was used at 10^−4 M, 10^−6 M, 10^−8M, and 10^−10M.

Assay [4] concerns PKCδ. The assay is described as follows: Immunofluorescence for PKCδ in HCEC monolayers. The format is cell-based, human. The following applies: CAP37 250 and 500 ng/ml; 15 minutes; scratched and non-scratched monolayers. The protocol:
as §1, §2

B1: CAP37: cationic antimicrobial protein of Mr 37 kDa; recombinant CAP37 produced in human embryonic kidney (HEK) 293 cells (protein)
chain: IVGGRKARPRQFPFLASIQNQGRHFCGGALIHARFVMTAASCFQSQNPGVSTVVLGAYDLRRRERQSRQTFSISSMSENGYDPQQNLNDLMLLQLDREANLTSSVTILPLPLQNATVEAGTRCQVAGWGSQRSGGRLSRFPRFVNVTVTPEDQCRPNNVCTGVLTRRGGICNGDGGTPLVCEGLAHGVASFSLGPCGRGPDFFTRVALFRDWIDGVLNNPGP
With B1, in assay [1], the “PKCα staining, in words” value is “no increase in PKCα staining”. The “PKCδ staining of corneal sections, in words” value in assay [2] is listed as “strong staining for PKCδ”. In addition, the “migration of HCECs vs buffer control, in words” value in assay [3] is “significant increase in migration”. In addition, in assay [4], the “PKCδ staining, in words” value was “dose-dependent increase in PKCδ staining”.
